# Assay results as given in article PMC13381803 (2026).
# Key:
# [1] = molecular target: T1, Hna with a C-terminal GFP tag (Sinorhizobium meliloti); test: FP; with ATP
# T1 chain: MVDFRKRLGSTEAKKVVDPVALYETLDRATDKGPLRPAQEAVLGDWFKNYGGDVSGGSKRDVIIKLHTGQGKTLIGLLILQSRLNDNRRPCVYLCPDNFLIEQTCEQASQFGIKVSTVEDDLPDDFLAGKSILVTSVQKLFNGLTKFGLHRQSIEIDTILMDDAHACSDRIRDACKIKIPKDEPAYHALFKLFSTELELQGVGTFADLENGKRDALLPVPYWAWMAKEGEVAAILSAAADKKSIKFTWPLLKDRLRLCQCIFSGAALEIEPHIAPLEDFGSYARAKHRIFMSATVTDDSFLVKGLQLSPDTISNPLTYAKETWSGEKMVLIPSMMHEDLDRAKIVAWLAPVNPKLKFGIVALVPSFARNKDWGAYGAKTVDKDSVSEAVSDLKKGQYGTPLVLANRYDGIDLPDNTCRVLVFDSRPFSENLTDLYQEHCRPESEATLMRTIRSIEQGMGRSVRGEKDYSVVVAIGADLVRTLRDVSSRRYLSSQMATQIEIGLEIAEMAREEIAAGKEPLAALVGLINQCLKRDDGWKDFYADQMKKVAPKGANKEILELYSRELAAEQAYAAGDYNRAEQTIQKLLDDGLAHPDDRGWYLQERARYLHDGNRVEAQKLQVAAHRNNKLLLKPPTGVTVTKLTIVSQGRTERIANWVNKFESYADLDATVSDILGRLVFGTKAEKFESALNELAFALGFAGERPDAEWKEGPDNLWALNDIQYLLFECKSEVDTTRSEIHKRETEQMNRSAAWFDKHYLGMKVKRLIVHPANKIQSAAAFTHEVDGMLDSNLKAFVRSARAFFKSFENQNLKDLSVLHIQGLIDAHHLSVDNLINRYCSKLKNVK
# [2] = molecular target: T1, Hna with a C-terminal GFP tag; test: FP; without ATP
binder,measurement,setting,value
"Hna (helicase-nuclease abortive infection), wild type, Sinorhizobium meliloti (enzyme) MVDFRKRLGSTEAKKVVDPVALYETLDRATDKGPLRPAQEAVLGDWFKNYGGDVSGGSKRDVIIKLHTGQGKTLIGLLILQSRLNDNRRPCVYLCPDNFLIEQTCEQASQFGIKVSTVEDDLPDDFLAGKSILVTSVQKLFNGLTKFGLHRQSIEIDTILMDDAHACSDRIRDACKIKIPKDEPAYHALFKLFSTELELQGVGTFADLENGKRDALLPVPYWAWMAKEGEVAAILSAAADKKSIKFTWPLLKDRLRLCQCIFSGAALEIEPHIAPLEDFGSYARAKHRIFMSATVTDDSFLVKGLQLSPDTISNPLTYAKETWSGEKMVLIPSMMHEDLDRAKIVAWLAPVNPKLKFGIVALVPSFARNKDWGAYGAKTVDKDSVSEAVSDLKKGQYGTPLVLANRYDGIDLPDNTCRVLVFDSRPFSENLTDLYQEHCRPESEATLMRTIRSIEQGMGRSVRGEKDYSVVVAIGADLVRTLRDVSSRRYLSSQMATQIEIGLEIAEMAREEIAAGKEPLAALVGLINQCLKRDDGWKDFYADQMKKVAPKGANKEILELYSRELAAEQAYAAGDYNRAEQTIQKLLDDGLAHPDDRGWYLQERARYLHDGNRVEAQKLQVAAHRNNKLLLKPPTGVTVTKLTIVSQGRTERIANWVNKFESYADLDATVSDILGRLVFGTKAEKFESALNELAFALGFAGERPDAEWKEGPDNLWALNDIQYLLFECKSEVDTTRSEIHKRETEQMNRSAAWFDKHYLGMKVKRLIVHPANKIQSAAAFTHEVDGMLDSNLKAFVRSARAFFKSFENQNLKDLSVLHIQGLIDAHHLSVDNLINRYCSKLKNVK",Kd,[1],337 nM
same,Kd,[2],4460 nM
